Bridge positions count the residues as written; N and C are the ends. Square brackets hold non-standard residues; d marks the D form. Ends that are not written are not given here. * marks the point of attachment. Acetyl(2-(4-imidazolyl)) = O=C(Cc1c[nH]cn1)*; Aib = CC(C)(N)C(=O)O
Columns and labels:
Assay in all cases: cell-based or functional assay
human GIP receptor = target: T1, human GIP receptor (human, UniProt P48546 22-466)
T1 sequence (looked up): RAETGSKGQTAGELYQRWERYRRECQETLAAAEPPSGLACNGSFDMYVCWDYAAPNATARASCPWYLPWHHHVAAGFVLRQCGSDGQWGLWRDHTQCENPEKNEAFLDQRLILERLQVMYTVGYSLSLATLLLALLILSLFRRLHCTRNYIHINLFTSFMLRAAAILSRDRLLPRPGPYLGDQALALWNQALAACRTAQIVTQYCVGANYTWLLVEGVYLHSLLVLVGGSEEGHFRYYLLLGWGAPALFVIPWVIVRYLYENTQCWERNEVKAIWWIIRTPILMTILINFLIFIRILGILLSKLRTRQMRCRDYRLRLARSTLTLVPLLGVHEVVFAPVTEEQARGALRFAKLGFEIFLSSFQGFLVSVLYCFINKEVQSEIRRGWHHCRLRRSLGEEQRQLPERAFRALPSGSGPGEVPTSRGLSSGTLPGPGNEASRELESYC

human GCG receptor = human GCG receptor (human, UniProt P47871 26-477)
human GCG receptor, sequence (P47871 26-477): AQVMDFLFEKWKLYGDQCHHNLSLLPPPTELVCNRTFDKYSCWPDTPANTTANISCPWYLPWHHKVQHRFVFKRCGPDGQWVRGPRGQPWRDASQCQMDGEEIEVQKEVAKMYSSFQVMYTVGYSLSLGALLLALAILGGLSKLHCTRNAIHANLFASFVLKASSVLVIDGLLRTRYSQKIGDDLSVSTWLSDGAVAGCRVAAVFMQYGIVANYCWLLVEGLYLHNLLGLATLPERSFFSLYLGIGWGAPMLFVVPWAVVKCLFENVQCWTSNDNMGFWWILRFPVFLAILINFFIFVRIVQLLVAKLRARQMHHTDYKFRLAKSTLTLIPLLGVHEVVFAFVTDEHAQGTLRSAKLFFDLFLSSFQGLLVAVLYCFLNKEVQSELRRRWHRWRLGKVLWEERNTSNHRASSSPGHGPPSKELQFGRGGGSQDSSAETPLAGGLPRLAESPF

human GLP-1 receptor = human GLP-1 receptor (human, UniProt P43220 24-463)

Binder | In vitro activity compared to native-type peptide (%), vs GIP (human GIP receptor) | In vitro activity compared to native-type peptide (%), vs Glucagon (human GCG receptor) | In vitro activity compared to native-type peptide (%), vs GLP-1 (human GLP-1 receptor)
H[Aib]QGTFTSDVSSYLDGQAAKEFIAWLVKGC [triple agonist of SEQ ID NO: 1] | < 0.1% | < 0.1% | 3.2%
H[Aib]QGTFTSDVSSYLLGQQQKEFIAWLVKGC [triple agonist of SEQ ID NO: 4] | < 0.1% | < 0.1% | 8.5%
H[Aib]QGTFTSDYSKYLDEKRQKEFVNWLLAQKC (bridge 16-20) [triple agonist of SEQ ID NO: 34] | 0.6% | 0.92% | 19.1%
H[Aib]QGTFTSDYSIAMDEIHQKDFVNWLLNTKC (bridge 16-20) [triple agonist of SEQ ID NO: 35] | 1.3% | < 0.1% | 7.5%
H[Aib]QGTFTSDYSKYLCEKRQKEFVQWLLNGGPSSGAPPPSG (bridge 16-20) [triple agonist of SEQ ID NO: 36] | 0.2% | 0.39% | 37.4%
H[Aib]QGTFTSDYSKYLDECRQKEFVQWLLNGGPSSGAPPPSG (bridge 16-20) [triple agonist of SEQ ID NO: 37] | 2.2% | 6.21% | 236%
[Acetyl(2-(4-imidazolyl))][Aib]QGTFTSDKSSYLDERAAQDFVQWLLDGGPSSGAPPPSS [triple agonist of SEQ ID NO: 38] |  |  | 2.3%
H[Aib]QGTFTSDYSKYLDGQHAQCFVAWLLAGGGPSSGAPPPS [triple agonist of SEQ ID NO: 39] | < 0.1% | 0.53% | 13.9%
H[Aib]QGTFTSDKSKYLDERACQDFVQWLLDGGPSSGAPPPS [triple agonist of SEQ ID NO: 40] | < 0.1% | < 0.1% | 75.2%
H[Aib]QGTFTSDKSKYLDECAAQDFVQWLLDGGPSSGAPPPS [triple agonist of SEQ ID NO: 41] | < 0.1% | < 0.1% | 34.3%
Y[Aib]QGTFTSDYSKYLDEKRAKEFVQWLLDHHPSSGQPPPSC (bridge 16-20) [triple agonist of SEQ ID NO: 42] | 7.8% | 206% | 33.9%
Y[Aib]QGTFTSDYSKYLDEKRAKEFVQWLLDHHCSSGQPPPS (bridge 16-20) [triple agonist of SEQ ID NO: 43] | 3.7% | 88.4% | 12.6%
HGQGTFTSDCSKQLDGQAAQEFVAWLLAGGPSSGAPPPS [triple agonist of SEQ ID NO: 44] | < 0.1% | < 0.1% | 1.3%
H[Aib]QGTFTSDVSSYLLGQQQKEFIAWLVKGGGPSSGAPPPSC [triple agonist of SEQ ID NO: 5] | < 0.1% | < 0.1% | 42.1%
HGQGTFTSDCSKYMDGQAAQDFVAWLLAGGPSSGAPPPS [triple agonist of SEQ ID NO: 45] | < 0.1% | < 0.1% | 6.6%
HGQGTFTSDCSKYLDEQHAQEFVAWLLAGGPSSGAPPPS [triple agonist of SEQ ID NO: 46] | < 0.1% | < 0.1% | 1.4%
HGQGTFTSDCSKYLDGQRAQEFVAWLLAGGPSSGAPPPS [triple agonist of SEQ ID NO: 47] | < 0.1% | < 0.1% | 2.4%
HGQGTFTSDCSKYLDGQRAQDFVNWLLAGGPSSGAPPPS [triple agonist of SEQ ID NO: 48] | < 0.1% | < 0.1% | 1.5%
[Acetyl(2-(4-imidazolyl))][Aib]QGTFTSDYSICMDEIHQKDFVNWLLNTK (bridge 16-20) [triple agonist of SEQ ID NO: 49] | 3.3% | < 0.1% | 29.8%
H[Aib]QGTFTSDYSKYLDEKRAKEFVQWLLDHHPSSGQPPPSC (bridge 16-20) [triple agonist of SEQ ID NO: 50] | 2.7% | 50.5% | 67.4%
H[Aib]QGTFTSDYSKYLDEKRQKEFVQWLLNTC (bridge 16-20) [triple agonist of SEQ ID NO: 51] | 0.1% | 2% | 14.4%
H[Aib]QGTFTSDYSKYLDEKRQKEFVQWLLDTC (bridge 16-20) [triple agonist of SEQ ID NO: 52] | 0.3% | 7.5% | 44.1%
H[Aib]EGTFTSDYSIAMDEIHQKDFVNWLLAQC (bridge 16-20) [triple agonist of SEQ ID NO: 53] | 1.3% | 8.4% | 161%
H[Aib]EGTFTSDYSIAMDEIHQKDFVDWLLAEC (bridge 16-20) [triple agonist of SEQ ID NO: 54] | 0.1% | 1.4% | 30.6%
H[Aib]QGTFTSDVSSYLDGQAAKEFVAWLLKGC [triple agonist of SEQ ID NO: 6] | < 0.1% | < 0.1% | 17%
H[Aib]QGTFTSDYSIAMDEIHQKDFVNWLLAQC (bridge 16-20) [triple agonist of SEQ ID NO: 55] | 2.4% | 0.7% | 27.1%
H[Aib]QGTFTSDYSKYLDEKRQKEFVNWLLAQC (also: ring formation (underlined residues), positions not given here) [triple agonist of SEQ ID NO: 56] | 0.8% | 4.9% | 57.9%
H[Aib]QGTFTSDYSIAMDEIHQKDFVNWLLNTC (bridge 16-20) [triple agonist of SEQ ID NO: 57] | 0.3% | < 0.1% | 11.7%
H[Aib]QGTFTSDYSKYLDEKRQKEFVQWLLNTKC (bridge 16-20) [triple agonist of SEQ ID NO: 58] | 0.2% | 2.6% | 39.1%
{Acetyl(2-(4-imidazolyl))}-[Aib]QGTFTSDYSICMDEKHQKDFVNWLLNTK (bridge 15-19) [triple agonist of SEQ ID NO: 59] | 4% | < 0.1% | 40.3%
